T1: Human OSCAR (osteoclast-associated receptor), full length, on cells (human)
T1 construct: also called hOSCAR; HEK-OSCAR cells
T1 chain: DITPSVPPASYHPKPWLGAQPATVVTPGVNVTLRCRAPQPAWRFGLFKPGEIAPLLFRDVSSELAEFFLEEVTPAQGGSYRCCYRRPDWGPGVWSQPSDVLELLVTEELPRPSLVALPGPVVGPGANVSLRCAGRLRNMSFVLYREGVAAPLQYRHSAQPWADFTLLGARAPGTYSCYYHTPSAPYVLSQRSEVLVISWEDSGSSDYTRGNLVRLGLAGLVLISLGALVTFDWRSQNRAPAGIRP

B1: anti-OSCAR mAb 13F5A5 (antibody, V domains shown)
VH: EVQLVQSGAEVKKPGESLKISCKGSGYSFTSYWIVWVRQMPGKGLEWMGSIYPGDSDARYSPSFQGQVTISADKSISTAYLQWSSLKASDTAMYYCARQKITMVRGVIITPLDGMDVWGQGTTVTVSS
VL: not shown
notes: Fully human mAb (HuMab mice)
B2: anti-OSCAR mAb 16F56A2 (antibody, V domains shown)
VH: QVQLVQSGAEVKKPGSSVKVSCKASGGTFSNYAISWVRQAPGQGLEWMGRIIPILGIAHNAQKFQDRVTITADKSTSTAYMELSSLRSEDTAVYYCASPSSGKGLPYWFFDLWGRGTLVTVSS
VL: DIQMTQSPSFLSASVGDRVTITCRASQSISSYLNWYQQKPGKAPKLLIYAASSLQSGVPSRFSGSGSGTDFTLTISSLQPEDFATYYCQCGYSTPLTFGGGTKVEIKR
notes: Human mAb
B3: recombinant extracellular domain of human OSCAR (OSCAR-ECD) (receptor)
chain: DITPSVPPASYHPKPWLGAQPATVVTPGVNVTLRCRAPQPAWRFGLFKPGEIAPLLFRDVSSELAEFFLEEVTPAQGGSYRCCYRRPDWGPGVWSQPSDVLELLVTEELPRPSLVALPGPVVGPGANVSLRCAGRLRNMSFVLYREGVAAPLQYRHSAQPWADFTLLGARAPGTYSCYYHTPSAPYVLSQRSEVLVISWEDSGSSDYTR
notes: The printed entry starts with the putative signal peptide; also called Human OSCAR-ECD; OSACAR-ECD

Tests used:
[1] = molecular target: T1, Human OSCAR (osteoclast-associated …); experiment: flow cytometry on human monocytes (CD14+ PBMC), Alexa Fluor 647-labelled mAb at 0.5 ug/ml
Human collagen I = molecular target: T2, Human collagen I (human, UniProt P02452 162-1218; P08123 80-1119); experiment: SPR
T2 construct: Bought (Sigma C5483); also called ColI; collagen 1
T2 sequence (P02452 162-1218, chain 1 of 2): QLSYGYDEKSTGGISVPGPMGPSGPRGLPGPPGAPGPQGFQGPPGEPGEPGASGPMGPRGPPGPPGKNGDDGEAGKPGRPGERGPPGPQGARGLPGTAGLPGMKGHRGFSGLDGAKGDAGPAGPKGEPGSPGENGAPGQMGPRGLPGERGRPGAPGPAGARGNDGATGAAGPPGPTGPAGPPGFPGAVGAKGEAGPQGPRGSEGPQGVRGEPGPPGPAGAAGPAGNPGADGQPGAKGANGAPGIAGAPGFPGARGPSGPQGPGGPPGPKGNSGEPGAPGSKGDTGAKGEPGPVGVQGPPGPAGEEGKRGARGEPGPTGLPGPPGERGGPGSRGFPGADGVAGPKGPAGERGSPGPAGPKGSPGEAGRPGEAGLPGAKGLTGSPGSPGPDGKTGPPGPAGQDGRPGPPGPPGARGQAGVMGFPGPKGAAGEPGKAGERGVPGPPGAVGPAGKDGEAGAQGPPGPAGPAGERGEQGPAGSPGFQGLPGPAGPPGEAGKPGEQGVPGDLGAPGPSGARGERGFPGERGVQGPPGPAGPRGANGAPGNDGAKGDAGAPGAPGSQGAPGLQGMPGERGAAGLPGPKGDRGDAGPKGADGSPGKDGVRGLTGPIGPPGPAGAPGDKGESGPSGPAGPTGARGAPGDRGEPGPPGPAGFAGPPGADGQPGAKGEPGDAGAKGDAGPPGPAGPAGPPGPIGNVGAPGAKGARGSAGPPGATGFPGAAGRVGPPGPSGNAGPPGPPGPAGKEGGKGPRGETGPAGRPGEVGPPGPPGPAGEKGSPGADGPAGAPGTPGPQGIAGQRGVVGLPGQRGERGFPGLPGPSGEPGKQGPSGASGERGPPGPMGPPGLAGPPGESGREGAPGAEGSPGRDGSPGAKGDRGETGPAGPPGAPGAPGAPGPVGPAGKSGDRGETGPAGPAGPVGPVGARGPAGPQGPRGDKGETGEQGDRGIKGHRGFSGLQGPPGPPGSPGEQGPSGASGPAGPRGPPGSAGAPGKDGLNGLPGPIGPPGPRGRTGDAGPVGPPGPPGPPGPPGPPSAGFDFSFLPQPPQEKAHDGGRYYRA
T2 sequence (P08123 80-1119, chain 2 of 2): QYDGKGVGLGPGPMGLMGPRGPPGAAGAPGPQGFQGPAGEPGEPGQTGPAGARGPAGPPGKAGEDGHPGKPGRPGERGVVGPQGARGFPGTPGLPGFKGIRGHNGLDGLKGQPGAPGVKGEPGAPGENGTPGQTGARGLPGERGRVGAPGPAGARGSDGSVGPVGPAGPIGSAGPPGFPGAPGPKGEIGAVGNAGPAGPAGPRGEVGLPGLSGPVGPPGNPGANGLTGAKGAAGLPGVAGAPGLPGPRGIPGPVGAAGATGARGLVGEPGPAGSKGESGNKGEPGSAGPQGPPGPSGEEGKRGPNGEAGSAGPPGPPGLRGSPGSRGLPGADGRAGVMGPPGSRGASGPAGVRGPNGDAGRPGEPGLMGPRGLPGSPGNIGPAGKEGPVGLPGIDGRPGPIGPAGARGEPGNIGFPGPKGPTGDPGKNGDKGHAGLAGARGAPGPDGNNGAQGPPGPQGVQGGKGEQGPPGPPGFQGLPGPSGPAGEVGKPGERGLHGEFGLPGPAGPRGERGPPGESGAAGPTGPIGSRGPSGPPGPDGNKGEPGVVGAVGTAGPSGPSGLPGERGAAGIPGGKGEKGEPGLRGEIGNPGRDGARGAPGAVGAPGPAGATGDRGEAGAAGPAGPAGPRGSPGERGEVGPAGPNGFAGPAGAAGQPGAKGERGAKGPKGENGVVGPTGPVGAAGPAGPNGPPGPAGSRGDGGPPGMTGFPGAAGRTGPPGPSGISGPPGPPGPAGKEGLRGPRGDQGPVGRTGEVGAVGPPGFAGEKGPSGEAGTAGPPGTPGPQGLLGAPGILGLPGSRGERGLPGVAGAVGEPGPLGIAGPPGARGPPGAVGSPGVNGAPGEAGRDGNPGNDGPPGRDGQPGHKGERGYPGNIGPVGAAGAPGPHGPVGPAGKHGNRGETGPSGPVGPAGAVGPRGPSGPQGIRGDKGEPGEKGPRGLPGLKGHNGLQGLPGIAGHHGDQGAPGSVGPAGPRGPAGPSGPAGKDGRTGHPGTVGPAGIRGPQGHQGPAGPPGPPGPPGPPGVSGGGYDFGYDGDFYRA

Row | binding result [1] | Kd (Human collagen I) [nM] | Binder
1 | binds |  | B1
2 | binds |  | B2
3 |  | 255 | B3

— patent WO2013011062A2 (dated 2013)
